These results are taken from patent US12629406B2, “Alterations in endothelin receptors following hemorrhage and resuscitation by centhaquin” (MIDWESTERN UNIVERSITY, priority 2018, dated 2026).

The target of test [1] is T1, ETB receptors (Homo sapiens, UniProt P24530).
T1 sequence (P24530 27-442): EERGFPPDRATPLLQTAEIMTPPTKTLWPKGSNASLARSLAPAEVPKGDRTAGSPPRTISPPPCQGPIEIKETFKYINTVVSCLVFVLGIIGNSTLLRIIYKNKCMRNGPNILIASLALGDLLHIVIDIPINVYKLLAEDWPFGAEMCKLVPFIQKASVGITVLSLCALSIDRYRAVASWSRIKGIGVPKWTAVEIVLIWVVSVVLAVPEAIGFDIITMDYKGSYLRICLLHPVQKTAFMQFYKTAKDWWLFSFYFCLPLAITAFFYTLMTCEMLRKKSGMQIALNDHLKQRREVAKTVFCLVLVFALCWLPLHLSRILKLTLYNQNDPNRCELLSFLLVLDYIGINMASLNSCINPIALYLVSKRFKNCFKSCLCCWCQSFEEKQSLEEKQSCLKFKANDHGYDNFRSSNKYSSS
The conditions noted are these: cited from earlier work.

In test [2] the target is T1, ETB receptors.
The target in another test is T2, ETA receptors (Homo sapiens, UniProt P25101).
T2 sequence (P25101 21-427): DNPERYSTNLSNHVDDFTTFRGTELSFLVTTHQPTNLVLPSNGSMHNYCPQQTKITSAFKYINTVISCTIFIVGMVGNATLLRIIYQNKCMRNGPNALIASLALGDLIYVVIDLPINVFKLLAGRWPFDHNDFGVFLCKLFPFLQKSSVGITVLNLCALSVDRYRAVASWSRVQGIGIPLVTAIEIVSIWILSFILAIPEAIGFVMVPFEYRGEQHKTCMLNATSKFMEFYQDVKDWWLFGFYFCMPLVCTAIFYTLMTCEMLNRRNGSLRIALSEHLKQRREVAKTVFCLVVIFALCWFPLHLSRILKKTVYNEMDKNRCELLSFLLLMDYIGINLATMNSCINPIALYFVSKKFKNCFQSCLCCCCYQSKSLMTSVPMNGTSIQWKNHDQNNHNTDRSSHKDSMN
The settings on record: cited from earlier work.

pKi: −log10 of the molar value. *1 amine or outer side, *2 acyl side, *3 side chain or, on linkers, in order; H or OH if unused. Where no end group is shown, it is not given here. Suc = O=C(CCC(=O)[*:2])[*:1]

With “analog of ET-1, Suc-Asp-Glu-Glu-Ala-Val-Tyr-Phe-Ala-His-Leu-Asp-Ile-Ile-Trp; potent and specific agonist for the ETB receptors (Suc-DEEAVYFAHLDIIW) [IRL-1620, N-Succinyl-[Glu^9, Ala^11,15] endothelin 1]”, the pKi was 10.80 with ETB receptors [1] and 5.72 in the test with ETA receptors. Moreover, the “selectivity for ETB over ETA receptors” value in the test with ETB receptors [2] was “approximately 120,000 times”.

In general, pKi refers to the Ki on a negative log10 scale, so that one unit is a factor of ten.
